In paper PMC7253601, “Rules of Expansion: an Updated Consensus Operator Site for the CopR-CopY Family of Bacterial Copper Exporter System Repressors” (mSphere, 2019):

How the values were obtained:
[1] = biological target: CopY (S. pneumoniae) (Streptococcus pneumoniae (TIGR4?)) (UniProt A0ACD7PQP7); test: BLI; details: BLI: 50 mM Tris pH 7.4, 150 mM NaCl, 4% glycerol, 1 mM TCEP, 0.1% BSA, 26 C; EMSA: Tris-borate without EDTA, 4 C, 5% PAGE
[2] = biological target: Streptococcus pneumoniae CopY (S. pneumoniae); test: SEC; Superdex 200; 20 mM Tris (pH 8), 200 mM NaCl, 1 mM TCEP; elution volume compared to an SEC standard (Bio-Rad); on ice or at 4°C
[3] = biological target: the molecule itself; test: as above
CopY (S. pneumoniae) [4] = biological target: T1, CopY (S. pneumoniae) (Streptococcus pneumoniae, UniProt A0ACD7PQP7 1-131); test: BLI; 3 uM CopY; BLI: 50 mM Tris pH 7.4, 150 mM NaCl, 4% glycerol, 1 mM TCEP, 0.1% BSA, 26 C; EMSA: Tris-borate without EDTA, 4 C, 5% PAGE; details: protein: recombinant; tags: N-terminal 6xHis removed by TEV (pMCSG7; also tested uncleaved); chain copies: 2; label: 5' biotin on forward strand; blunt
CopY (S. pneumoniae) [5] = biological target: T1, CopY (S. pneumoniae); test: BLI; BLI: 50 mM Tris pH 7.4, 150 mM NaCl, 4% glycerol, 1 mM TCEP, 0.1% BSA, 26 C; EMSA: Tris-borate without EDTA, 4 C, 5% PAGE; details: protein: recombinant; tags: N-terminal 6xHis removed by TEV (pMCSG7; also tested uncleaved); chain copies: 2; label: 5' biotin on forward strand; blunt

19 bp T to C (operator position 3) showed a Kd [1] of 40.4 nM.

Molecule full palindrome (A13C) has a Kd [1] of 39.6 nM.

14 bases (14 of 21 repeat bases) gave a Kd [1] of over 3000 nM.

“16 bp (16 of 21 repeat bases kept: ATTGACAAATGTAGAT)” showed a Kd [1] of 360 nM.

With “Streptococcus pneumoniae CopY (natural protein)” the stoichiometry N [2] was 2.

Work on 19 bp (19 of 21 repeat bases) yielded a Kd [1] of 37.1 nM.

With E. hirae proximal operator the Kd [1] was 164 nM.

B1: Enterococcus hirae CopY E86D (natural protein)
chain: MEEKRVLIKISDSEWEVMRVIWTLGQANAQQITQILADSMDWKVATVKTLLGRLVKKEALWTEQEGKKFIYHPAVSEMENVRSATDNLFSHICAKRVGATIADLVEEATLTQEDIQQIMKQLNKKEPVETIECNCIPGQCECKKQ
notes: CopY, cop operon repressor, Enterococcus hirae; cloned from genomic DNA; the methods call the gene copR; The wild type was cut by TEV inside the protein and was used uncleaved; also called E. hirae cop repressor; cleaved E86D protein; source: recombinant (pMCSG7 vector), purified (IMAC, TEV cleavage, subtractive IMAC, SEC); not shown: His6, N-terminal, cleaved
For B1, the “stoichiometry N” value [3] was 2.

B2: SP_1863 (dsDNA)
DNA 1: ATGAATAAAACAATTGTAACACTCATC
DNA 2: GATGAGTGTTACAATTGTTTTATTCAT
B2: no binding (CopY (S. pneumoniae) [4]).

B3: SP_0090 2 (dsDNA)
DNA 1: GAGTATACTAATAATGTAATCGTTATC
DNA 2: GATAACGATTACATTATTAGTATACTC
B3: no binding (CopY (S. pneumoniae) [4]).

B4: Streptococcus thermophilus CopY (natural protein, S. thermophilus, UniProt Q5M352 1-143, looked up)
chain: MLAISSAEWEVMRVLWAKGQATSSEIIEILAKKLDWSASTVKTLIGRLADKGYLTSQRQGRGFIYQASLGEDEAIFQALEAVFDKICLTKHSDLLGQLIAKTPMTQADVDKLQALLLAKVPVDQVVCDCVPGQCACGHHMEVN
notes: CopY (CopR-CopY family cop operon repressor), Streptococcus thermophilus; cloned from genomic DNA; also called S. thermophilus cop operon repressor; CopR-CopY; source: recombinant (pMCSG7 vector), purified (IMAC, TEV cleavage, subtractive IMAC, SEC); not shown: His6, N-terminal, cleaved
In the case of B4, the “stoichiometry N” value [3] is reported as 2.

B5: SP_2073 (dsDNA)
DNA 1: AAGGCGGAAACATGTGTCAATGACTTG
DNA 2: CAAGTCATTGACACATGTTTCCGCCTT
B5: no binding (CopY (S. pneumoniae) [4]).

B6: SP_1433 (dsDNA)
DNA 1: GTAATTATAACAGATGTATAATAGAAA
DNA 2: TTTCTATTATACATCTGTTATAATTAC
B6: no binding (CopY (S. pneumoniae) [4]).

B7: SP_0090 1 (dsDNA)
DNA 1: TGATTTAGGACATTTGTTTGATAGTGG
DNA 2: CCACTATCAAACAAATGTCCTAAATCA
B7: no binding (CopY (S. pneumoniae) [4]).

B8: wild type two-operator DNA (BLI) (dsDNA)
DNA 1: TAATTGACAAATGTAGATTTTAAGAGTATACTGATGAGTGTAATTGACAAATGTAGATTTT
DNA 2: AAAATCTACATTTGTCAATTACACTCATCAGTATACTCTTAAAATCTACATTTGTCAATTA
In the case of B8, the Kd (CopY (S. pneumoniae) [5]) is reported as 28.1 ± 0.2 nM.

B9: SP_0045 (dsDNA)
DNA 1: GGTGAACTAACAGATGTTTACGAAATT
DNA 2: AATTTCGTAAACATCTGTTAGTTCACC
B9: no binding (CopY (S. pneumoniae) [4]).

B10: SP_0530 (dsDNA)
DNA 1: ATTTGAGGAACAAATGTACGTTTATAA
DNA 2: TTATAAACGTACATTTGTTCCTCAAAT
B10: no binding (CopY (S. pneumoniae) [4]).
